Data published in article PMC10916433 (2023).

B1: GFP‐tagged wild‐type RAGE (AAV‐RAGE‐Wt) [mouse] / receptor‐interacting serine/threonine protein kinase 1 (RIPK1), endogenous [mouse (endogenous in BV2 cells and in mouse hippocampus)] (parent complex)
chain 1: GQNITARIGEPLVLSCKGAPKKPPQQLEWKLNTGRTEAWKVLSPQGGPWDSVARILPNGSLLLPATGIVDEGTFRCRATNRRGKEVKSNYRVRVYQIPGKPEIVDPASELTASVPNKVGTCVSEGSYPAGTLSWHLDGKLLIPDGKETLVKEETRRHPETGLFTLRSELTVIPTQGGTHPTFSCSFSLGLPRRRPLNTAPIQLRVREPGPPEGIQLLVEPEGGIVAPGGTVTLTCAISAQPPPQVHWIKDGAPLPLAPSPVLLLPEVGHEDEGTYSCVATHPSHGPQESPPVSIRVTETGDEGPAEGSVGESGLGTLALALGILGGLGVVALLVGAILWRKRQPRREERKAPESQEDEEERAELNQSEEAEMPENGAGGP
chain 2: MQPDMSLDNIKMASSDLLEKTDLDSGGFGKVSLCYHRSHGFVILKKVYTGPNRAEYNEVLLEEGKMMHRLRHSRVVKLLGIIIEEGNYSLVMEYMEKGNLMHVLKTQIDVPLSLKGRIIVEAIEGMCYLHDKGVIHKDLKPENILVDRDFHIKIADLGVASFKTWSKLTKEKDNKQKEVSSTTKKNNGGTLYYMAPEHLNDINAKPTEKSDVYSFGIVLWAIFAKKEPYENVICTEQFVICIKSGNRPNVEEILEYCPREIISLMERCWQAIPEDRPTFLGIEEEFRPFYLSHFEEYVEEDVASLKKEYPDQSPVLQRMFSLQHDCVPLPPSRSNSEQPGSLHSSQGLQMGPVEESWFSSSPEYPQDENDRSVQAKLQEEASYHAFGIFAEKQTKPQPRQNEAYNREEERKRRVSHDPFAQQRARENIKSAGARGHSDPSTTSRGIAVQQLSWPATQTVWNNGLYNQHGFGTTGTGVWYPPNLSQMYSTYKTPVPETNIPGSTPTMPYFSGPVADDLIKYTIFNSSGIQIGNHNYMDVGLNSQPPNNTCKEESTSRHQAIFDNTTSLTDEHLNPIRENLGRQWKNCARKLGFTESQIDEIDHDYERDGLKEKVYQMLQKWLMREGTKGATVGKLAQALHQCCRIDLLNHLIRASQS

Variants of: B1
Assay: co-immunoprecipitation (IP: RIPK1, IB: RAGE), optical density of blot; hippocampus of db/db + RAGE-KD mice injected with AAV-RAGE-Wt or AAV-RAGE-Mut; n = 4; mean ± S.D; parent: 1.9; read off a plot
For chain 1 GQNITARIGEPLVLSCKGAPKKPPQQLEWKLNTGRTEAWKVLSPQGGPWDSVARILPNGSLLLPATGIVDEGTFRCRATNRRGKEVKSNYRVRVYQIPGKPEIVDPASELTASVPNKVGTCVSEGSYPAGTLSWHLDGKLLIPDGKETLVKEETRRHPETGLFTLRSELTVIPTQGGTHPTFSCSFSLGLPRRRPLNTAPIQLRVREPGPPEGIQLLVEPEGGIVAPGGTVTLTCAISAQPPPQVHWIKDGAPLPLAPSPVLLLPEVGHEDEGTYSCVATHPSHGPQESPPVSIRVTETGDEGPAEGSVGESGLGTLALALGILGGLGVVALLVGAILWAAAAAAREERKAPESQEDEEERAELNQSEEAEMPENGAGGP [chain 1 R340A, chain 1 K341A, chain 1 R342A, chain 1 Q343A, chain 1 P344A, chain 1 R345A], the response was ~1 fold change to the db/db + RAGE-KD group.

Variants of: B1
Assay: co-immunoprecipitation (IP: RAGE, IB: RIPK1), optical density of blot; hippocampus of db/db + RAGE-KD mice injected with AAV-RAGE-Wt or AAV-RAGE-Mut; n = 4; mean ± S.D; parent: 2.7; read off a plot
chain 1 GQNITARIGEPLVLSCKGAPKKPPQQLEWKLNTGRTEAWKVLSPQGGPWDSVARILPNGSLLLPATGIVDEGTFRCRATNRRGKEVKSNYRVRVYQIPGKPEIVDPASELTASVPNKVGTCVSEGSYPAGTLSWHLDGKLLIPDGKETLVKEETRRHPETGLFTLRSELTVIPTQGGTHPTFSCSFSLGLPRRRPLNTAPIQLRVREPGPPEGIQLLVEPEGGIVAPGGTVTLTCAISAQPPPQVHWIKDGAPLPLAPSPVLLLPEVGHEDEGTYSCVATHPSHGPQESPPVSIRVTETGDEGPAEGSVGESGLGTLALALGILGGLGVVALLVGAILWAAAAAAREERKAPESQEDEEERAELNQSEEAEMPENGAGGP [chain 1 R340A, chain 1 K341A, chain 1 R342A, chain 1 Q343A, chain 1 P344A, chain 1 R345A] was tested, and the response was ~0.95 fold change to the db/db + RAGE-KD group.
